Source: the Human Domainome abundance scans (Beltran et al. 2025)
± gives the uncertainty stated by the source.

B1: POU domain, class 4, transcription factor 2, residues 256 to 327; numbered along this chain, Q12837 (parent)
chain: RDLEAFAERFKQRRIKLGVTQADVGSALANLKIPGVGSLSQSTICRFESLTLSHNNMIALKPILQAWLEEAE

Variants of: B1
Test: abundance fitness (aPCA) (normalised: wild type 0, dead -1); higher = more abundant; growth selection in yeast, the domain comes from the species named
Settings: Homo sapiens

| Variant | abundance fitness |
| --- | --- |
| RDLEAFAERFKQRRIKLGVTQADVGSATANLKIPGVGSLSQSTICRFESLTLSHNNMIALKPILQAWLEEAE [L28T] | -0.528 ± 0.084 |
| RDLEAFAERFKQRRIKLGVTQADVGSAVANLKIPGVGSLSQSTICRFESLTLSHNNMIALKPILQAWLEEAE [L28V] | -0.143 ± 0.094 |
| RDLEAFAERFKQRRIKLGVTQADVGSAWANLKIPGVGSLSQSTICRFESLTLSHNNMIALKPILQAWLEEAE [L28W] | -0.597 ± 0.1 |
| RDLEAFAERFKQRRIKLGVTQADVGSAYANLKIPGVGSLSQSTICRFESLTLSHNNMIALKPILQAWLEEAE [L28Y] | -0.747 ± 0.16 |
| RDLEAFAERFKQRRIKLGVTQADVGSALCNLKIPGVGSLSQSTICRFESLTLSHNNMIALKPILQAWLEEAE [A29C] | -0.136 ± 0.093 |
| RDLEAFAERFKQRRIKLGVTQADVGSALDNLKIPGVGSLSQSTICRFESLTLSHNNMIALKPILQAWLEEAE [A29D] | 0.03 ± 0.44 |
| RDLEAFAERFKQRRIKLGVTQADVGSALENLKIPGVGSLSQSTICRFESLTLSHNNMIALKPILQAWLEEAE [A29E] | -0.239 ± 0.079 |
| RDLEAFAERFKQRRIKLGVTQADVGSALFNLKIPGVGSLSQSTICRFESLTLSHNNMIALKPILQAWLEEAE [A29F] | -0.544 ± 0.14 |
| RDLEAFAERFKQRRIKLGVTQADVGSALGNLKIPGVGSLSQSTICRFESLTLSHNNMIALKPILQAWLEEAE [A29G] | -0.009 ± 0.082 |
| RDLEAFAERFKQRRIKLGVTQADVGSALHNLKIPGVGSLSQSTICRFESLTLSHNNMIALKPILQAWLEEAE [A29H] | -0.198 ± 0.1 |
| RDLEAFAERFKQRRIKLGVTQADVGSALINLKIPGVGSLSQSTICRFESLTLSHNNMIALKPILQAWLEEAE [A29I] | -0.323 ± 0.18 |
| RDLEAFAERFKQRRIKLGVTQADVGSALKNLKIPGVGSLSQSTICRFESLTLSHNNMIALKPILQAWLEEAE [A29K] | 0.042 ± 0.1 |
| RDLEAFAERFKQRRIKLGVTQADVGSALLNLKIPGVGSLSQSTICRFESLTLSHNNMIALKPILQAWLEEAE [A29L] | -0.158 ± 0.045 |
| RDLEAFAERFKQRRIKLGVTQADVGSALMNLKIPGVGSLSQSTICRFESLTLSHNNMIALKPILQAWLEEAE [A29M] | -0.046 ± 0.11 |
| RDLEAFAERFKQRRIKLGVTQADVGSALNNLKIPGVGSLSQSTICRFESLTLSHNNMIALKPILQAWLEEAE [A29N] | -0.116 ± 0.22 |
| RDLEAFAERFKQRRIKLGVTQADVGSALQNLKIPGVGSLSQSTICRFESLTLSHNNMIALKPILQAWLEEAE [A29Q] | 0.108 ± 0.078 |
| RDLEAFAERFKQRRIKLGVTQADVGSALSNLKIPGVGSLSQSTICRFESLTLSHNNMIALKPILQAWLEEAE [A29S] | 0.019 ± 0.052 |
| RDLEAFAERFKQRRIKLGVTQADVGSALTNLKIPGVGSLSQSTICRFESLTLSHNNMIALKPILQAWLEEAE [A29T] | -0.107 ± 0.072 |
| RDLEAFAERFKQRRIKLGVTQADVGSALVNLKIPGVGSLSQSTICRFESLTLSHNNMIALKPILQAWLEEAE [A29V] | -0.237 ± 0.092 |

| Variant | abundance fitness |
| --- | --- |
| RDLEAFAERFKQRRIKLGVTQADVGSALWNLKIPGVGSLSQSTICRFESLTLSHNNMIALKPILQAWLEEAE [A29W] | -0.799 ± 0.22 |
| RDLEAFAERFKQRRIKLGVTQADVGSALYNLKIPGVGSLSQSTICRFESLTLSHNNMIALKPILQAWLEEAE [A29Y] | -0.165 ± 0.14 |
| RDLEAFAERFKQRRIKLGVTQADVGSALAALKIPGVGSLSQSTICRFESLTLSHNNMIALKPILQAWLEEAE [N30A] | -0.116 ± 0.082 |
| RDLEAFAERFKQRRIKLGVTQADVGSALACLKIPGVGSLSQSTICRFESLTLSHNNMIALKPILQAWLEEAE [N30C] | -0.094 ± 0.13 |
| RDLEAFAERFKQRRIKLGVTQADVGSALAELKIPGVGSLSQSTICRFESLTLSHNNMIALKPILQAWLEEAE [N30E] | -0.456 ± 0.16 |
| RDLEAFAERFKQRRIKLGVTQADVGSALAGLKIPGVGSLSQSTICRFESLTLSHNNMIALKPILQAWLEEAE [N30G] | -0.103 ± 0.097 |
| RDLEAFAERFKQRRIKLGVTQADVGSALAHLKIPGVGSLSQSTICRFESLTLSHNNMIALKPILQAWLEEAE [N30H] | -0.087 ± 0.13 |
| RDLEAFAERFKQRRIKLGVTQADVGSALAILKIPGVGSLSQSTICRFESLTLSHNNMIALKPILQAWLEEAE [N30I] | -0.766 ± 0.27 |
| RDLEAFAERFKQRRIKLGVTQADVGSALAKLKIPGVGSLSQSTICRFESLTLSHNNMIALKPILQAWLEEAE [N30K] | 0.054 ± 0.14 |
| RDLEAFAERFKQRRIKLGVTQADVGSALALLKIPGVGSLSQSTICRFESLTLSHNNMIALKPILQAWLEEAE [N30L] | -0.244 ± 0.064 |
| RDLEAFAERFKQRRIKLGVTQADVGSALAMLKIPGVGSLSQSTICRFESLTLSHNNMIALKPILQAWLEEAE [N30M] | -0.5 ± 0.11 |
| RDLEAFAERFKQRRIKLGVTQADVGSALAPLKIPGVGSLSQSTICRFESLTLSHNNMIALKPILQAWLEEAE [N30P] | -0.146 ± 0.054 |
| RDLEAFAERFKQRRIKLGVTQADVGSALAQLKIPGVGSLSQSTICRFESLTLSHNNMIALKPILQAWLEEAE [N30Q] | -0.059 ± 0.067 |
| RDLEAFAERFKQRRIKLGVTQADVGSALARLKIPGVGSLSQSTICRFESLTLSHNNMIALKPILQAWLEEAE [N30R] | -0.189 ± 0.059 |
| RDLEAFAERFKQRRIKLGVTQADVGSALASLKIPGVGSLSQSTICRFESLTLSHNNMIALKPILQAWLEEAE [N30S] | -0.059 ± 0.061 |
| RDLEAFAERFKQRRIKLGVTQADVGSALATLKIPGVGSLSQSTICRFESLTLSHNNMIALKPILQAWLEEAE [N30T] | -0.112 ± 0.092 |
| RDLEAFAERFKQRRIKLGVTQADVGSALAVLKIPGVGSLSQSTICRFESLTLSHNNMIALKPILQAWLEEAE [N30V] | -0.432 ± 0.11 |
| RDLEAFAERFKQRRIKLGVTQADVGSALAWLKIPGVGSLSQSTICRFESLTLSHNNMIALKPILQAWLEEAE [N30W] | -0.315 ± 0.08 |
| RDLEAFAERFKQRRIKLGVTQADVGSALAYLKIPGVGSLSQSTICRFESLTLSHNNMIALKPILQAWLEEAE [N30Y] | -0.183 ± 0.27 |
